Tests used:
Test in all cases: EMSA
[1] = target: Flag-p65 (homodimer) (UniProt Q04206 1-551)
[2] = target: Flag-p50 (homodimer) (UniProt P19838 1-433)
[3] = target: HA-p65;Flag-p50 (human?;human?, UniProt Q04206;P19838 1-551;1-433, |)

Measured: binding result

Chain of HA-p65;Flag-p50 (Q04206 whole entry, chain 1 of 2): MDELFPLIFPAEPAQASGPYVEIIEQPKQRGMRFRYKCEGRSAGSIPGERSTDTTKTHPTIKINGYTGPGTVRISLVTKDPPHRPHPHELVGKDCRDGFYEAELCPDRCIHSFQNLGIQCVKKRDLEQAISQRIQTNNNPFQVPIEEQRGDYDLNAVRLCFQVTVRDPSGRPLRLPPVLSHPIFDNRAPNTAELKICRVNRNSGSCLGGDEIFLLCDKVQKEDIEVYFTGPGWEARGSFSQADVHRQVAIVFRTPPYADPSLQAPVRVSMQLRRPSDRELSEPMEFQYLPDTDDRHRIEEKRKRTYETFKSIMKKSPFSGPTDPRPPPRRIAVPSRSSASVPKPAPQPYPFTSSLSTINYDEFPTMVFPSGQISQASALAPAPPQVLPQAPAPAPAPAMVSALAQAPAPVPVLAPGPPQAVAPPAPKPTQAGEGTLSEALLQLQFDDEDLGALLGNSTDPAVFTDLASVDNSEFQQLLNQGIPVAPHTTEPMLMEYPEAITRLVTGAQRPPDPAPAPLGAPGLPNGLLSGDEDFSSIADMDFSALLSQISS
Chain of HA-p65;Flag-p50 (P19838 1-433, chain 2 of 2): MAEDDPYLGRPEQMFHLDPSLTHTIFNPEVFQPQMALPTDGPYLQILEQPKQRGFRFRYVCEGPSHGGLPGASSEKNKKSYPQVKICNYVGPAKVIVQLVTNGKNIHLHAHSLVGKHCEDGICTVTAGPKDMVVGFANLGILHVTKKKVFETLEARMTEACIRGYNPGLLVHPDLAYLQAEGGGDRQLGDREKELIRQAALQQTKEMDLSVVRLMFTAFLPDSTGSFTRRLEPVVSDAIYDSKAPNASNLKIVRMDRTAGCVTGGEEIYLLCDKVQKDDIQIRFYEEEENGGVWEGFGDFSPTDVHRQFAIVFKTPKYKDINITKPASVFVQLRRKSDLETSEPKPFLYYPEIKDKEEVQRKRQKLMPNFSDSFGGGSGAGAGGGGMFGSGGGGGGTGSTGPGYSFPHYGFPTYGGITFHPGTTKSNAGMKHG
Chain of Flag-p65 (homodimer) (Q04206 whole entry): as the sequence (Q04206 whole entry, chain 1 of 2) above
Chain of Flag-p50 (homodimer) (P19838 1-433): as the sequence (P19838 1-433, chain 2 of 2) above

B1: Ig kappaB mutant (dsDNA)
DNA 1: AGTTGAATCCACTTTCCCAGG
DNA 2: CCTGGGAAAGTGGATTCAACT
no binding: all assays above

Source: paper PMC5397172
